Assay results taken from paper PMC4519966.

Assay: Western blot (data not shown)
Details: glycan lost; control: wild-type NOS1AP

expression_or_secretion, no change:
NOS1AP (CAPON): S271A
NOS1AP (CAPON): S204A
NOS1AP (CAPON): S269A
NOS1AP (CAPON): S183A
NOS1AP (CAPON): S47A
